Source: paper PMC6016464, “Folding and binding pathways of BH3-only proteins are encoded within their intrinsically disordered sequence, not templated by partner proteins” (The Journal of Biological Chemistry, 2018)
Where no end group is shown, it is not given here. The star is where a group is joined. TAMRA = 5-carboxytetramethylrhodamine, CN(C)c1ccc2c(-c3ccc(C(=O)*)cc3C(=O)[O-])c3ccc(=[N+](C)C)cc-3oc2c1

T1: MCL-1 (mouse, residues 152-308) (mouse)
T1 construct: remnant of thrombin cleavage at the N-terminus of MCL-1; MCL-1, mouse, residues 152-308, UniProt P97287; source: E. coli C41 pLysS, purified (Ni2+ agarose, thrombin cleavage, ion exchange, Superdex G75 gel filtration); not shown: His6, N-terminal, cleaved
T1 chain: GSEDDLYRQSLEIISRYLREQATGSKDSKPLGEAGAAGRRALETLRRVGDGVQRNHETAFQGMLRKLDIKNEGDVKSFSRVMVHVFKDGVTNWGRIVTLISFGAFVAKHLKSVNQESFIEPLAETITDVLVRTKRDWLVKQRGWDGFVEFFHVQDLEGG

T2: A1 protein (mouse, residues 1-152, P104K C113S, used as wild type) (mouse)
T2 sequence (Q07440 1-152 with P104K C113S, looked up): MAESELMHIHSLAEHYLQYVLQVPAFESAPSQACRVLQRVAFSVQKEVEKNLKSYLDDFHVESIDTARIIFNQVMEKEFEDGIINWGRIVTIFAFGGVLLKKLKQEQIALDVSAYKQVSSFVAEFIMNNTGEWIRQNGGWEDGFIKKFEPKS

B1: BID peptide (mouse, residues 76-110), TAMRA-labelled (peptide)
chain: {TAMRA}-SESQEEIIHNIARHLAQIGDEMDHNIQPTLVRQLA
notes: BID, mouse, residues 76-110, UniProt P70444; also called WT; source: synthetic peptide (Biomatik)
B2: BID R88G peptide, TAMRA-labelled (peptide, UniProt P70444 76-110, looked up)
chain: {TAMRA}-SESQEEIIHNIAGHLAQIGDEMDHNIQPTLVRQLA
notes: BID, mouse, residues 76-110, UniProt P70444; source: synthetic peptide (Biomatik)
B3: BID H99G peptide, TAMRA-labelled (peptide, UniProt P70444 76-110, looked up)
chain: {TAMRA}-SESQEEIIHNIARHLAQIGDEMDGNIQPTLVRQLA
notes: as for B2
B4: BID M97A peptide, TAMRA-labelled (peptide, UniProt P70444 76-110, looked up)
chain: {TAMRA}-SESQEEIIHNIARHLAQIGDEADHNIQPTLVRQLA
notes: as for B2
B5: BID H99A peptide, TAMRA-labelled (peptide, UniProt P70444 76-110, looked up)
chain: {TAMRA}-SESQEEIIHNIARHLAQIGDEMDANIQPTLVRQLA
notes: as for B2
B6: BID I86A peptide, TAMRA-labelled (peptide, UniProt P70444 76-110, looked up)
chain: {TAMRA}-SESQEEIIHNAARHLAQIGDEMDHNIQPTLVRQLA
notes: as for B2
B7: BID R88A peptide, TAMRA-labelled (peptide, UniProt P70444 76-110, looked up)
chain: {TAMRA}-SESQEEIIHNIAAHLAQIGDEMDHNIQPTLVRQLA
notes: as for B2
B8: BID E96G peptide, TAMRA-labelled (peptide, UniProt P70444 76-110, looked up)
chain: {TAMRA}-SESQEEIIHNIARHLAQIGDGMDHNIQPTLVRQLA
notes: as for B2
B9: BID I82A peptide, TAMRA-labelled (peptide, UniProt P70444 76-110, looked up)
chain: {TAMRA}-SESQEEAIHNIARHLAQIGDEMDHNIQPTLVRQLA
notes: as for B2
B10: BID E96A peptide, TAMRA-labelled (peptide, UniProt P70444 76-110, looked up)
chain: {TAMRA}-SESQEEIIHNIARHLAQIGDAMDHNIQPTLVRQLA
notes: as for B2
B11: BID I86A-M97A peptide, TAMRA-labelled (peptide, UniProt P70444 76-110, looked up)
chain: {TAMRA}-SESQEEIIHNAARHLAQIGDEADHNIQPTLVRQLA
notes: as for B2
B12: BID I93A peptide, TAMRA-labelled (peptide, UniProt P70444 76-110, looked up)
chain: {TAMRA}-SESQEEIIHNIARHLAQAGDEMDHNIQPTLVRQLA
notes: as for B2
B13: PUMA W133F peptide (on the M144A wild type), TAMRA-labelled (peptide)
chain: {TAMRA}-RVEEEEFAREIGAQLRRAADDLNAQYERRRQEEQH
B14: PUMA A150G peptide (on the M144A wild type), TAMRA-labelled (peptide)
chain: {TAMRA}-RVEEEEWAREIGAQLRRAADDLNGQYERRRQEEQH

Target: T1, MCL-1 (mouse, residues 152-308)
Assay: fluorescence dissociation kinetics with competitor; dissociation; preformed complex of TAMRA-labelled peptide and partner protein mixed with excess unlabeled PUMA peptide as competitor; stopped-flow or Cary Eclipse spectrophotometer; 25 °C; 50 mM sodium phosphate, 0.05% (v/v) Tween 20, pH 7.0
Conditions: both partners purified
Procedure, shortened: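 The dissociation rate constant comes from competitor displacement of a preformed complex of TAMRA-labelled peptide and mouse MCL-1 (residues 152–308), mixed with various concentrations of unlabelled competitor peptide. Runs were at 25 °C in 50 mM sodium phosphate, 0.05% (v/v) Tween 20, pH 7.0, read on stopped-flow (kobs > 0.03 s^−1) or Cary Eclipse (kobs < 0.03 s^−1). Fluorescence changes were fit to single exponentials. With sufficient competitor excess, concentration-independent kobs values were averaged as koff.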

| koff [s⁻¹] | Binder |
| --- | --- |
| 0.003 | B1 |
| 0.015 | B2 |
| 0.004 | B3 |
| 0.03 | B4 |
| 0.001 | B5 |
| 0.14 | B6 |
| 0.0063 | B7 |
| 0.01 | B8 |
| 0.0062 | B9 |
| 0.0038 | B10 |
| 1.36 | B11 |
| 0.43 | B12 |

Target: T1, MCL-1 (mouse, residues 152-308)
Assay: stopped-flow fluorescence kinetics; association; TAMRA-labelled peptide with folded partner at least 10-fold higher (pseudo-first-order); kon from the gradient of kobs versus partner concentration; 25 °C; 50 mM sodium phosphate, 0.05% (v/v) Tween 20, pH 7.0
Conditions: both partners purified
Procedure, shortened: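 The association rate constant was measured by stopped-flow fluorescence of TAMRA-labelled peptide mixed with mouse MCL-1 (residues 152–308), with the partner at least 10-fold in excess. Excitation was at 555 nm, emission above 570 nm, 25 °C, in 50 mM sodium phosphate, 0.05% (v/v) Tween 20, pH 7.0. At least 15 traces were averaged, data before the 1 ms deadtime removed, and single-exponential fits gave kobs. kon is the slope of kobs versus partner concentration.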

| kon [M⁻¹ s⁻¹] | Binder |
| --- | --- |
| 8.9e+06 | B1 |
| 8.3e+06 | B2 |
| 9e+06 | B3 |
| 7.8e+06 | B4 |
| 9.2e+06 | B5 |
| 4e+06 | B6 |
| 1e+07 | B7 |
| 1.09e+07 | B8 |
| 9.5e+06 | B9 |
| 9.9e+06 | B10 |
| 3.5e+06 | B11 |
| 4.5e+06 | B12 |

Target: T1, MCL-1 (mouse, residues 152-308)
Assay: stopped-flow fluorescence kinetics + other: fluorescence dissociation kinetics with competitor; Kd calculated as the ratio koff/kon of the kinetic rate constants; 25 °C; 50 mM sodium phosphate, 0.05% (v/v) Tween 20, pH 7.0
Conditions: both partners purified

| Kd [pM] | Binder |
| --- | --- |
| 330 | B1 |
| 1800 | B2 |
| 400 | B3 |
| 3800 | B4 |
| 120 | B5 |
| 35000 | B6 |
| 600 | B7 |
| 900 | B8 |
| 650 | B9 |
| 380 | B10 |
| 390000 | B11 |
| 96000 | B12 |

Each binder was assayed against T2, A1 protein (mouse, residues 1-152, P104K C113S, used as wild type) (mouse) (assay: fluorescence dissociation kinetics with competitor; dissociation; preformed complex of TAMRA-labelled peptide and partner protein mixed with excess unlabeled PUMA peptide as competitor; stopped-flow or Cary Eclipse spectrophotometer; 25 °C; 50 mM sodium phosphate, 0.05% (v/v) Tween 20, pH …). Conditions: not given.

| koff [s⁻¹] | Binder |
| --- | --- |
| 0.00203 | B13 |
| 0.00215 | B14 |
| 0.000155 | B1 |
| 0.00303 | B2 |
| 0.0015 | B4 |
| 0.022 | B6 |
| 0.00088 | B7 |
| 0.00077 | B8 |
| 0.000146 | B10 |
| 0.11 | B11 |
| 0.0025 | B12 |

The binders below were run against T2, A1 protein (mouse, residues 1-152, P104K C113S, used as wild type) (mouse) (assay: stopped-flow fluorescence kinetics; association; TAMRA-labelled peptide with folded partner at least 10-fold higher (pseudo-first-order); kon from the gradient of kobs versus partner concentration; 25 °C; 50 mM sodium phosphate, 0.05% (v/v) Tween 20, pH 7.0). Conditions: not given.

| kon [M⁻¹ s⁻¹] | Binder |
| --- | --- |
| 4.27e+06 | B13 |
| 4.84e+06 | B14 |
| 8.2e+06 | B1 |
| 4.9e+06 | B2 |
| 8.1e+06 | B4 |
| 2.9e+06 | B6 |
| 5.3e+06 | B7 |
| 7.8e+06 | B8 |
| 1e+07 | B10 |
| 2.2e+06 | B11 |
| 5.6e+06 | B12 |

What follows are binders tested against T2, A1 protein (mouse, residues 1-152, P104K C113S, used as wild type) (mouse) (assay: stopped-flow fluorescence kinetics + other: fluorescence dissociation kinetics with competitor; Kd calculated as the ratio koff/kon of the kinetic rate constants; 25 °C; 50 mM sodium phosphate, 0.05% (v/v) Tween 20, pH 7.0). Conditions: not given.

| Kd [pM] | Binder |
| --- | --- |
| 475 | B13 |
| 444 | B14 |
| 19 | B1 |
| 600 | B2 |
| 190 | B4 |
| 7600 | B6 |
| 160 | B7 |
| 98 | B8 |
| 15 | B10 |
| 50000 | B11 |
| 440 | B12 |
